We go through two molecules from US20250066499A1 (SUNSHINE GUOJIAN PHARMACEUTICAL SHANGHAI, published 2025).

The target of test [1] is T1, CD73-CD-his (human, UniProt P21589 337-549).
T1 construct: it fits residue S549 of P21589 (27+522)
T1 sequence: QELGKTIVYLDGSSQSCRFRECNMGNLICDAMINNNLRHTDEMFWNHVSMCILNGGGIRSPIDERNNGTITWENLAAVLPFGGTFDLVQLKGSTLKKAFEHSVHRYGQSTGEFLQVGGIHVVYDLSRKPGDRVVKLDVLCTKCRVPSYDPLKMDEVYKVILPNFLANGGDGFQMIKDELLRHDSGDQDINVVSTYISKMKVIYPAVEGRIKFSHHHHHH
The experiment in a line: ELISA as in Example 3, antigen CD73-CD-his, antibody titrated, absorbance 450 nm. A general note: In an ELISA, binding on a coated surface is turned into a signal by an enzyme label.

Another test addresses T2, human CD73-His protein (human, UniProt P21589 27-549).
T2 construct: Expressed in HEK-293F with a signal peptide that is not specified; In the ELISAs it was biotinylated with EZ-Link NHS-Biotin (CD73-biotin) and captured on streptavidin; in SPR and the enzyme assay it was used as CD73-His; also called CD73-his antigen; CD73-biotin
T2 sequence: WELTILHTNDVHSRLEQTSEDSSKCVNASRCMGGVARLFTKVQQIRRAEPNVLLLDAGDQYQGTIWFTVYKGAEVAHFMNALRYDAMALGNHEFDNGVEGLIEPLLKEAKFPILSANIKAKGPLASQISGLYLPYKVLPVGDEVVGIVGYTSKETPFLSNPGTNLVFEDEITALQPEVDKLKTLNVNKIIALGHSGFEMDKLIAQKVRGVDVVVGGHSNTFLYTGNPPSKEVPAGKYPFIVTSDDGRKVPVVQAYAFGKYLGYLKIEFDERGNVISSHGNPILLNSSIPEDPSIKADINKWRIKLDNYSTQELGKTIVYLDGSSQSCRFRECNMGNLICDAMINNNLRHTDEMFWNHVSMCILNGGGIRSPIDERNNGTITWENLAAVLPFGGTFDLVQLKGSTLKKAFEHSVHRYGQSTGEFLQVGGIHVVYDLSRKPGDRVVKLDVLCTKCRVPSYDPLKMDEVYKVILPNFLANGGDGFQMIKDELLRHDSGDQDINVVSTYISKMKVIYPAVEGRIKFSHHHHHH
The experiment in a line: ELISA as in Example 3, antigen CD73-his, antibody titrated, absorbance 450 nm.

Test [2] addresses T1, CD73-CD-his. In words: ELISA as in Example 3, antigen CD73-CD-his, antibody titrated, absorbance 450 nm. This is another data set of the same source.
The target of a further test is T3, CD73-ND-L184A (human, UniProt P21589 27-317).
T3 construct: Alanine mutant of CD73-ND
T3 sequence: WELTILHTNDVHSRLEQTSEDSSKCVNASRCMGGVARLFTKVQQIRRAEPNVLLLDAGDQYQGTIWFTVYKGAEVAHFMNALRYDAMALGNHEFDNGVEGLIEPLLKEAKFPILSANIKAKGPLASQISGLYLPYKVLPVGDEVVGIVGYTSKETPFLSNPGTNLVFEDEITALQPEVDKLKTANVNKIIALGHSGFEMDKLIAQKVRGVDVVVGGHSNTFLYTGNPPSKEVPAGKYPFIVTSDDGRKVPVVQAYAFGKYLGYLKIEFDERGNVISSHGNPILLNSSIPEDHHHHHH
In words: ELISA, high plateau value (OD 450 nm). The procedure: (§1) The ELISA plates were coated with SA protein diluted to 1.5 μg/mL in coating buffer (50 mM carbonate coating buffer, pH 9.6) and incubated overnight at 4° C. The supernatant was discarded, and the plates were washed three times with PBST. Then, 5% skimmed milk powder prepared with PBS was added for blocking and the plates were incubated for 2 h at 37° C. After washing the plates once with PBST, CD73-biotin protein (prepared by biotinylating CD73-His protein according to the EZ-Link NHS-Biotin Reagent instructions) was diluted to 0.5 μg/mL and added at 100 μL/well for incubation at room temperature for 1 h. The plates were washed three times with PBST, and the prepared murine-derived monoclonal antibodies against human CD73 were serially diluted with 1% BSA buffer prepared with PBST and added to the ELISA plates at 100 μl/well. The plates were incubated at 37° C. for 1 h. After washing the plates three times with PBST, HRP-labeled goat anti-mouse IgG secondary antibody was added and the plates were incubated for 30 min at 37° C. After washing the plates three times with PBST, the residual droplets were patted dry on absorbent paper as much as possible. Then, 100 μl of TMB color developing solution was added to each well, and the plates were incubated in the dark at room temperature for 5 min for color development. Subsequently, 50 μl of 2M H₂SO₄ stop solution was added to each well to terminate the substrate reaction. The OD values were read at 450 nm using a multimode microplate reader to analyze the binding ability of the tested antibodies to the target antigen human CD73-His.
(§2) Referring to the experimental method in Example 3, the affinity of 48A11-HuV33 for various mutant proteins of CD73-ND was determined. The SA protein was diluted to 1 μg/mL for coating the ELISA plates, and the biotinylated CD73 protein (CD73-biotin) was used at a concentration of 0.1 μg/mL.

The target in another test is T4, CD73-ND-V140A (human, UniProt P21589 27-317).
T4 construct: Alanine mutant of CD73-ND
T4 sequence: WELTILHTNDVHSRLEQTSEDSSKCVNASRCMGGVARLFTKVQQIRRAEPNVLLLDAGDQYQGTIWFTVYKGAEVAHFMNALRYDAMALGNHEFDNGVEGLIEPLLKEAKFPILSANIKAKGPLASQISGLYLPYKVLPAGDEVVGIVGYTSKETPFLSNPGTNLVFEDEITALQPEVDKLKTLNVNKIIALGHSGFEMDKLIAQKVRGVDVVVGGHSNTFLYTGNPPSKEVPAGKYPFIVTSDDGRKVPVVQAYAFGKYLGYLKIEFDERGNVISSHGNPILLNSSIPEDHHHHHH
The experiment in a line: ELISA, high plateau value (OD 450 nm). As to the method:
as §1, §2

For another test, the target named is T5, CD73-ND-D142A (human, UniProt P21589 27-317).
T5 construct: Alanine mutant of CD73-ND
T5 sequence: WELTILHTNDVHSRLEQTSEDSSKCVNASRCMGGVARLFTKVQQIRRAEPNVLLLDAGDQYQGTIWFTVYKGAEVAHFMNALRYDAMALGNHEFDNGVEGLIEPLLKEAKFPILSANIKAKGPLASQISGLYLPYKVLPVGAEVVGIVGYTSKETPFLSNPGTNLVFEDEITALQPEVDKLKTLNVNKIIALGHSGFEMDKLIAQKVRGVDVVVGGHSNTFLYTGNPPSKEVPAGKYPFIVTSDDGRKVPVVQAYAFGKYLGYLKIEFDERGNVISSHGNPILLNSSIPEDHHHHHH
In words: ELISA, high plateau value (OD 450 nm). The procedure: as §1, §2

Like-named read-outs stand apart in the source and are kept apart here.

B1: 56B10-HuV31 (antibody, human IgG4, V domains shown)
VH: QVQLQQSGAEVKKPGASVKVSCKASGYTFTRYYIYWVRQRPGQGLEWIGWIYPGNFNTKYNEKFKGRATLTADTSASTAYMELSSLTSEDTAVYYCARDVYDYAGFAYWGQGTLVTVSS
VL: DIQLTQSPSFLSASVGDRVTITCKASQGVATAVAWYQQKPGQSPKLLIYWASTRHTGVPDRFSGSGSGTEFTLTISSLQPEDFATYYCQQYSSYPWTFGQGTKVEIK
notes: Humanized
One may read the EC50 (read off the curve) as the midpoint of the concentration-response curve. Read a low EC50 (read off the curve) as higher potency in that assay. For B1, the binding result with CD73-CD-his [1] is listed as “no binding (tested: 10 nM)”. Moreover, the “EC50 (read off the curve)” value in the test with human CD73-His protein was about 0.07 nM.

B2: 48A11-HuV33 (antibody, human IgG4, V domains shown)
VH: QVQLVQSGAEVKKPGASVKVSCKASGYTFTSYWMHWVRQAPGQGLEWIGEINPSIGRTNYNEKFKSRVTLTRDTSTSTAYMELSSLRSEDTAVYYCARRVYGTMDYWGQGTLVTVSS
VL: DIQMTQSPSSLSASVGDRVTITCKASQDINSYLSWFQQKPGKSPKLLIYRANIWVDGVPSRFSGSGSGQDYTFTISSLQPEDIATYYCLQYDELYTFGQGTKVEIK
notes: Humanized
As for B2, the binding result with CD73-CD-his [2] is “no binding (tested: 10 nM)”. The Top with CD73-ND-L184A was 1.7; with CD73-ND-V140A, 2.05; with CD73-ND-D142A, 1.84.
